{
  "source": "the RNAGym collection of RNA variant scans (doi:10.7554/elife.80360)",
  "parents": {"B1": {"name": "HDV Ribozyme (parent)", "chain": "GGCCGGCAUGGUCCCAGCCUCCUCGCUGGCGCCGGCUGGGCAACAUUCCGAGGGGACCGUCCCCUCGGUAAUGGCGAAUGGGACCCA"}},
  "data": [
    {"variants_of": "B1", "experiment": "self-cleavage, relative activity (ratio to wild type); higher = more cleavage; co-transcriptional", "values": [
      {"variant": "GGCCGGCAUGGUCCCAGCCACCUCGCUGGCGCCGCCUGGGCAACAUUCCGAGGGGACCGUCCCCUCGGUAAUGGCGAAUGGGACCCA", "note": "[U20A G35C]", "self-cleavage": 0.122},
      {"variant": "GGCCGGCAUGGUCCCAGCCUCCUCGCUGGCACCGGCUGGGCAACAUUCCGAGGGGACCGUCCCUUCGGUAAUGGCGAAUGGGACCCA", "note": "[G31A C64U]", "self-cleavage": 0.409},
      {"variant": "GGCCGGCAUGGUCCCAGCCUCCUCGCUGGCGCCGGCUGGGCAACAUUCCGAGGGGACCGUCCCCCCGUUAAUGGCGAAUGGGACCCA", "note": "[U65C G68U]", "self-cleavage": 0.831},
      {"variant": "GGCCGGCAUGGUCCCACCCUCCUCGCUGGCGCCGGCUGGGCAACAUUCCGAGGGGACCGUCCUCUCGGUAAUGGCGAAUGGGACCCA", "note": "[G17C C63U]", "self-cleavage": 0.397},
      {"variant": "GGCCGGCAUGGUCCCAGCCUCCUCGCUGGCGCCGGCUGGGGAACAUUCCGAGGGGACCUUCCCCUCGGUAAUGGCGAAUGGGACCCA", "note": "[C41G G59U]", "self-cleavage": 0.969},
      {"variant": "GGCCGGCAUGGUCCCAGCCUCCUCGCUGGCGCCGGCUGGUCAACAUUCCGAGGGGACCGUCCCCUCGGUAAUGGCGAAUGGGACCCU", "note": "[G40U A87U]", "self-cleavage": 0.667},
      {"variant": "GGCCGGCAUGGUCCCAGCCUCCUCGCUGGCGCCGGCUGGGCAACAUUCCGAGGGGACCGUUCCCUCGGUAAUGGCGAAUUGGACCCA", "note": "[C61U G80U]", "self-cleavage": 0.217},
      {"variant": "GGCCGGCAUGGUCCCAGCCUCCUCGCUGGCGCCGGCUGGGCAACAUUCCGAGGGGACCGUCCCCUCGGGAAUGGCGAAUCGGACCCA", "note": "[U69G G80C]", "self-cleavage": 0.219},
      {"variant": "GGCCGGCAUGGUCCCGUCCUCCUCGCUGGCGCCGGCUGGGCAACAUUCCGAGGGGACCGUCCCCUCGGUAAUGGCGAAUGGGACCCA", "note": "[A16G G17U]", "self-cleavage": 0.643},
      {"variant": "GGCCGCCAUGGUCCCAGCCUCCUCGCUGGCGCCGGCUGGGCAACAUUCCGAGGGGACCGUCCCCUCGGUAAUGCCGAAUGGGACCCA", "note": "[G6C G74C]", "self-cleavage": 0},
      {"variant": "GGGCGGCAUGGUCCCAGCCUCCUCGCUGGCGCCGGCUGGGCAACAUUCCGAGGGGACCGUCCCCUCGGUAAUGGCGAAUGGGACGCA", "note": "[C3G C85G]", "self-cleavage": 0.774},
      {"variant": "GGCCGGCAUGGUCCAAGCCUCCUCGCUGGCGCCGGCUGGGCAACAUUCCGAGGGGACCGUCCCCUCGGUAAUGGCGACUGGGACCCA", "note": "[C15A A78C]", "self-cleavage": 0.0652},
      {"variant": "GGCCGGCAUGGUCCCAGCCUCCUCGCUGGCGCCGUCUGGGCAACUUUCCGAGGGGACCGUCCCCUCGGUAAUGGCGAAUGGGACCCA", "note": "[G35U A45U]", "self-cleavage": 0.289},
      {"variant": "GGCCGGCAUGGUCCCAGCCUCCUCGCUGGCGCCGGCUGGGCAACAUUCCCAGGGUACCGUCCCCUCGGUAAUGGCGAAUGGGACCCA", "note": "[G50C G55U]", "self-cleavage": 0.776},
      {"variant": "GGCCGGCAUGGUCCCAGUCUCCUCGCUGGCGCCGGCUGGGCAACAUUCCGAGGGGACCGUCCUCUCGGUAAUGGCGAAUGGGACCCA", "note": "[C18U C63U]", "self-cleavage": 0.733},
      {"variant": "GGCCGGCAUGGUCCCAGCCUCCUCGCUGGCGCCGGCUGGGCAACAUUCCGAGGGGUCCGUCCCCUCGGUAAUGGAGAAUGGGACCCA", "note": "[A56U C75A]", "self-cleavage": 0.0875},
      {"variant": "GGCCCGCAUGGUCCCAGCCUCCUCGCUGGCGCCGGCUGGGCAACAUUCCGAGGGGACCGUCCUCUCGGUAAUGGCGAAUGGGACCCA", "note": "[G5C C63U]", "self-cleavage": 0.0437},
      {"variant": "GGCCGGCAUGGUCCCAGCCUCCUCGCUGGCGCCGGCAGGGCAACAUUCCGAGGGGACCGUCCCCUCGGUAAUGGCGAAUGGAACCCA", "note": "[U37A G82A]", "self-cleavage": 0.138},
      {"variant": "GGCCGCCAUGGUCCCAGCCUCCUCGCUGGCGCCGGCUGGGCAACAUUCCGAGGGGACCGUCCCCUCGGUAAUGUCGAAUGGGACCCA", "note": "[G6C G74U]", "self-cleavage": 0.196},
      {"variant": "GGCCGGCUUGGUCCCAGCCUCCUCGCUGGCGCCGGCUGGGCAACAUUCCGAGGCGACCGUCCCCUCGGUAAUGGCGAAUGGGACCCA", "note": "[A8U G54C]", "self-cleavage": 0.538},
      {"variant": "GGCCGGCAUGGUCCCAGCCUCCUCGCUGGCGCCGGCUGGGCAACGUUCCGAAGGGACCGUCCCCUCGGUAAUGGCGAAUGGGACCCA", "note": "[A45G G52A]", "self-cleavage": 0.875},
      {"variant": "GGCCGGCAUGGUCCCAGCCUCCUCUCUGGCGCCGCCUGGGCAACAUUCCGAGGGGACCGUCCCCUCGGUAAUGGCGAAUGGGACCCA", "note": "[G25U G35C]", "self-cleavage": 0.0707},
      {"variant": "GGCCGGCAUGGUCCCAGCCUCCUCGCUGGCGCCGGCUGGGCAACAGUCCGAGGGGACCGUCCCCUCGGUAAUGGCGAAGGGGACCCA", "note": "[U46G U79G]", "self-cleavage": 0.787},
      {"variant": "GGCCGGCAUGGUUCCUGCCUCCUCGCUGGCGCCGGCUGGGCAACAUUCCGAGGGGACCGUCCCCUCGGUAAUGGCGAAUGGGACCCA", "note": "[C13U A16U]", "self-cleavage": 1.11},
      {"variant": "GGCCAGCAUGGUCCCAGCCUACUCGCUGGCGCCGGCUGGGCAACAUUCCGAGGGGACCGUCCCCUCGGUAAUGGCGAAUGGGACCCA", "note": "[G5A C21A]", "self-cleavage": 0.0923},
      {"variant": "GGCCGGCAUCGUCCCAGCCUCCUCGCUGGCGCCGGCUGUGCAACAUUCCGAGGGGACCGUCCCCUCGGUAAUGGCGAAUGGGACCCA", "note": "[G10C G39U]", "self-cleavage": 0.808},
      {"variant": "GGCCGGCAUGGUCCCAGCCUCCUCGCUGGCGCCGGCUGGGCAACAUUCCGAGGGGACCGUCCCGUUGGUAAUGGCGAAUGGGACCCA", "note": "[C64G C66U]", "self-cleavage": 0.955},
      {"variant": "GGCCGGCAUGGUCCCAGCCUCCUCGCUUGCGCCGGCUGGGCAACAUUCCGAGGGGACCGUCCCCUCGGUAAUGGCGAAUGUGACCCA", "note": "[G28U G81U]", "self-cleavage": 0.202},
      {"variant": "GGCCGGCAUGUUCCCAGCCUCCUCGCUGGCGCCGGCUCGGCAACAUUCCGAGGGGACCGUCCCCUCGGUAAUGGCGAAUGGGACCCA", "note": "[G11U G38C]", "self-cleavage": 0},
      {"variant": "GGCCGGCAUGGCCCCAGCCUCCUCGCUGGCGCCGGCUGGGCAACAUUCCGAGGGGACCGUCCCCUCGGUAAUGGCGAAAGGGACCCA", "note": "[U12C U79A]", "self-cleavage": 0.0615},
      {"variant": "GGCCGGCAUGGUCCCAGCCUCCUCGCUGGCGCCGGCUGGGCUACAUUCCGAGGGGACCGUCCCCUCGGUAAUGGCGAAUGGGACACA", "note": "[A42U C85A]", "self-cleavage": 0.415},
      {"variant": "GGCCGGCAUGGUCCCAGCCUCGGCGCUGGCGCCGGCUGGGCAACAUUCCGAGGGGACCGUCCCCUCGGUAAUGGCGAAUGGGACCCA", "note": "[C22G U23G]", "self-cleavage": 0}
    ]}
  ]
}
